Ends that are not written are not given here. GST = glutathione-S-transferase
Target: T1, VEGFR-3/EpoR chimera expressed on BaF3 cells (UniProt P14753+P35916)
T1 construct: expressed in transfected cells; host or cells: BaF3 (IL-3 dependent murine pro-B cells)
T1 sequence (P35916+P14753 with tags, fused parts or gaps): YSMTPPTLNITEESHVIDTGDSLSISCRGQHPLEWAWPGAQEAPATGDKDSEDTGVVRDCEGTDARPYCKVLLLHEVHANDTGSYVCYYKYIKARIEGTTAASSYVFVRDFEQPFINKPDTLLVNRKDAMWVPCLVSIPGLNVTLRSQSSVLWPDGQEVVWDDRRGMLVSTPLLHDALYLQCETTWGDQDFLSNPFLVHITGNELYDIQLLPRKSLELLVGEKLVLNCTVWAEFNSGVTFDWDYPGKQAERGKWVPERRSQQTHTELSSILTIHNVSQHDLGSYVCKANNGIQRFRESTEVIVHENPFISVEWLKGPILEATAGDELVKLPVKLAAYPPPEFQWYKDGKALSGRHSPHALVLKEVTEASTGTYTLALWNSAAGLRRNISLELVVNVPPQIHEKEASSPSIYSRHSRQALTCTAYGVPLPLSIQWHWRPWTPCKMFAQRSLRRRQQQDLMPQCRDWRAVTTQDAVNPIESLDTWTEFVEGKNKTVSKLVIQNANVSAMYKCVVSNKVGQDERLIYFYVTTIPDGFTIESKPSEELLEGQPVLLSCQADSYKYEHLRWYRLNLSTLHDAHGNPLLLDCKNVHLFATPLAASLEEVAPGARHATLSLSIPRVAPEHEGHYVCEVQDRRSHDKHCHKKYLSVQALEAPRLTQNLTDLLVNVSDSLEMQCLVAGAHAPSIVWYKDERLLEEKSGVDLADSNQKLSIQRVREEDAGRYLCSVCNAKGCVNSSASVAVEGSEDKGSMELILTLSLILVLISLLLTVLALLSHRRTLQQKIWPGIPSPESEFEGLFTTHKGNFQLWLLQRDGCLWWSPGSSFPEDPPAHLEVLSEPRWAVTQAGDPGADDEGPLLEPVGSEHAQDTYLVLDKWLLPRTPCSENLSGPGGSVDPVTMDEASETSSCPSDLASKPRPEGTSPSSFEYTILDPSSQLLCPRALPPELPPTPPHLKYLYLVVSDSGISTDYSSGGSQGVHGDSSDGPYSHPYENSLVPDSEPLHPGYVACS
Experiment: Bioassay for VEGFR-3 stimulation: viability (MTT) of BaF3 cells expressing a VEGFR-3/EpoR chimera, supplied with VEGF-C
Type: cell-based
Procedure: For the viability assay, the IL-3 dependent BaF3 cells expressing a VEGFR-3/EpoR chimera (Aschen et al, Eur J Biochem. 267(9):2505-15, 2000) were seeded in 96 well microtiter plates at 15000 cells/well in triplicates in the absence of IL-3 but supplied with the lOOng/ml VEGF-C and a range of concentrations of the selected peptides fused with GST. Cells were cultured for 48 h, during which time the cells incubated in cell culture medium alone had died. The viability of the cells was determined by the MTT reagent, which was added at a concentration of 0.5 mg/ml. After 2 h an equal volume of cell lysis solution was added (10%SDS/10 mM HCl) and allowed to incubate overnight at 37° C. The absorbance was measured at 540 nm.
The effects of the peptides fused to GST on the growth of BaF3-R3/EpoR were assessed using the MTT assay as described above and are depicted in FIG. 1. In this experiment, GST- CGYWLTIWGC (SEQ ID NO: 35) fusion protein was used for the inhibition of VEGF-C binding to VEGFR-3 expressed on BaF3 cells. In this experiment, a 20 uM concentration of the fusion protein sufficed to inhibit the binding completely as measured by the MTT cell death assay.

For “GST-CGYWLTIWGC: fusion protein of glutathione-S-transferase (GST) with peptide CGYWLTIWGC, produced in E. coli from pGEX-2T ({GST}-CGYWLTIWGC; cysteine pairing not given here; also: GST fusion, dimerising)”, the “concentration that sufficed to inhibit VEGF-C binding to VEGFR-3 completely, as measured by the MTT cell death assay” value (GST fusion protein, BaF3-R3/EpoR cells, no IL-3, VEGF-C supplied, 48 h) was 20 µM and the “concentration sufficient to completely inhibit VEGF-C/D binding to VEGFR-3 expressed on BaF3 cells” value (GST fusion protein, BaF3 cells) was 20 µM.
CGYWLTIWGC (isolated peptide) was tested, and the “competition with VEGF-C binding to VEGFR-3 expressed on BaF3 cells (in words)” value (BaF3 cells expressing VEGFR-3) was “competes with VEGF-C binding to VEGFR-3”.

From US7611711B2, “VEGFR-3 inhibitor materials and methods” (Vegenics Limited, priority 2001, dated 2009)
